# Results reported in patent publication US20040106557.
# Entries after “also recorded” stand apart in the source; their conditions may differ.
# Columns and labels:
# [1] = tested on: 125I-labeled C4
# [2] = tested on: Eu-labelled C4-peptide
# [3] = tested on: GST-A-1 (peptide A-1 expressed as glutathione S-transferase fusion protein)
# [4] = tested on: GST-B-2 (peptide B-2 expressed as glutathione S-transferase fusion protein)
# [5] = tested on: GST-C-4 (peptide C-4 expressed as glutathione S-transferase fusion protein)
# [6] = tested on: SKSKSKS-aca-CVAYCIEHHCWTC (SKSKSKS-tailed peptide C4)
# Target sequence (chain, as listed by the source): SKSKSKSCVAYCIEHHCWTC
# [7] = tested on: Tc99m-labeled C4
# [8] = tested on: chemically synthesized peptide A-1 (A-1-1, A-1 parent)
# [9] = tested on: chemically synthesized peptide C-4 without GA flanks (C-4-1, C4 parent)
# [10] = molecular target: insulin like growth factor-binding protein 3 (IGF-BP-3) (UniProt P17936)
# Chain of insulin like growth factor-binding protein 3 (IGF-BP-3) (P17936 28-291): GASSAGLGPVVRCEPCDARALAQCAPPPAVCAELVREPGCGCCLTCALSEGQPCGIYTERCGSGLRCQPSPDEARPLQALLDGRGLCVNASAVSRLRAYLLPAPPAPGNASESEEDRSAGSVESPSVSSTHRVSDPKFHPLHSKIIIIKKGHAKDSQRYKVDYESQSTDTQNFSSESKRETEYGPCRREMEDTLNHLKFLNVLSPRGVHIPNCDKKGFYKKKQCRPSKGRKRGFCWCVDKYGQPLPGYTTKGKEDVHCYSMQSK
# [11] = tested on: mercaptoethanol-reduced C4
substance,measurement,setting,value
"Prostate specific antigen (PSA), purified from human seminal fluid","PSA enzyme activity (A405) on substrate S-2586; PSA 0.33 µM, peptide in 30-fold molar excess",[1],"125-iodinated C4: rises to about 0.048 at 58 min, little above PSA alone (about 0.040) and far under C4 (about 0.070)"
same,PSA enzyme activity (A405) on substrate S-2586; PSA 0.33 µM with 100 µL of C18 fractions of the Eu-labelling mixture of C4,[2],"at 60 min fraction 27 reaches about 0.043, fraction 26 about 0.037, fraction 28 about 0.024; all other fractions and the PSA control lie together at about 0.006-0.011"
same,PSA activity against the chromogenic substrate S-2586 (A405),[3],The enzyme activity of PSA was significantly enhanced by the GST-peptides
same,PSA activity against the chromogenic substrate S-2586 (A405),[4],The enzyme activity of PSA was significantly enhanced by the GST-peptides
same,PSA activity against the chromogenic substrate S-2586 (A405),[5],stimulating PSA activity against the chromogenic substrate about 5-fold
same,"PSA enzyme activity (A405 nm) on substrate S-2586; PSA 0.33 µM, peptide in 30-fold molar excess",[6],"SKSKSKS-tailed C4: rises linearly to about 0.060 at 65 min, just under non-tailed C4; PSA control about 0.021"
same,"PSA enzyme activity (A405) on substrate S-2586; PSA 0.33 µM, peptide in 30-fold molar excess",[7],"C4-technetium-conjugate: rises to about 0.12 at 95 min, between unlabelled C4 (about 0.16) and the PSA control (about 0.095); wide error bars"
same,"cleavage of IGF-BP-3 by PSA (IGF-BP-3 IFMA), 100-fold molar excess of peptide",[8],about 70% cleavage of IGF-BP-3
same,PSA enzyme activity (A405) on substrate S-2586; PSA 0.33 µM,[9],Unlabelled C4: rises to about 0.16 at 95 min; PSA control about 0.095; also recorded: C4: rises to about 0.070 at 58 min; PSA alone about 0.040
same,"PSA enzyme activity (A405 nm) on substrate S-2586; PSA 0.33 µM, peptide in 30-fold molar excess",[9],non-tailed C4: rises linearly to about 0.063 at 65 min; PSA control about 0.021
same,"cleavage of IGF-BP-3 by PSA (IGF-BP-3 IFMA), 100-fold molar excess of peptide",[9],about 70% cleavage of IGF-BP-3
same,decrease in IGF-BP-3 immunoreactivity (IFMA) after 16 h at 37 °C,[10],PSA alone slowly cleaved IGF-BP-3 as revealed by an 30% decrease in immunoreactivity
same,PSA enzyme activity (A405) on substrate S-2586; PSA 0.33 µM,[11],"mercaptoethanol-reduced C4: curve lies on that of the PSA control over the whole time, about 0.095 at 95 min: no enhancement"
